As usually defined, the Kd is the equilibrium constant for the complex coming apart. Lower therefore signals higher affinity.

Like-named read-outs stand apart in the source and are kept apart here.

Among the targets are pxENBCP17-FLS-CT-His-SBP (SARS-CoV-2, UniProt P0DTC2 15-1213); pxENBCP20-FLS-CT-His-TST (SARS-CoV-2, UniProt P0DTC2 15-1213); pxEBNCP16-IL2-FLS-CT-His (SARS-CoV-2, UniProt P0DTC2 16-1213); pxEBNCP3-S1-His (SARS-CoV-2, UniProt P0DTC2 15-681); pxENB14-His-TEV-RBD (SARS-CoV-2, UniProt P0DTC2 319-541); pxEBNCP1-His-TEV-S1 (SARS-CoV-2, UniProt P0DTC2 14-680); pxEBNCP14-tPa-FLS-CT-His (SARS-CoV-2, UniProt P0DTC2 16-1213); pxEBNCP2-tPa-His-TEV-S1 (SARS-CoV-2, UniProt P0DTC2 14-680); pxEBNCP4-tPa-S1-His (SARS-CoV-2, UniProt P0DTC2 15-681); pxAM-FLS-A-TB-His (SARS-CoV-2, UniProt P0DTC2 15-1213); commercial RBD protein (SARS-CoV-2, UniProt P0DTC2 319-541).

The target of experiment [1] is T1, pxENB9-FLS-CT-His (SARS-CoV-2, UniProt P0DTC2 15-1213).
Experiment [2] concerns the target T2, pxENB17-RBD-His (SARS-CoV-2, UniProt P0DTC2 319-541).
The target of experiment [3] is T2, pxENB17-RBD-His. As to the kind of experiment: BLI (Octet), ACE2 construct loaded on SA tips by its tag, RBD as analyte. On the technique in general: In BLI a coated tip is dipped into the sample, and binding shifts an interference pattern.
The target in experiment [4] is pxENBCP19-FLS-CT-His-StrepTagII (SARS-CoV-2, UniProt P0DTC2 15-1213).
In experiment [5] the target is T2, pxENB17-RBD-His. This is another data set of the same source.
For experiment [6], the target named is T1, pxENB9-FLS-CT-His. The source holds these as a separate data set.
For experiment [7], the target named is T3, pxENB1-His-TEV-FLS-TN (SARS-CoV-2, UniProt P0DTC2 14-1213).
Experiment [8] deals with T4, pxENB8-FLS-TN-His (SARS-CoV-2, UniProt P0DTC2 15-1213).
For experiment [9], the target named is T1, pxENB9-FLS-CT-His. The source holds these as a separate data set.
The target in experiment [10] is T5, pxENB2-His-TEV-FLS-CT (SARS-CoV-2, UniProt P0DTC2 14-1213).
Experiment [11] deals with T6, pxENB5-his-TEV-FLS (SARS-CoV-2, UniProt P0DTC2 14-1213).
Experiment [12] concerns the target T7, pxENB12-FLS-His (SARS-CoV-2, UniProt P0DTC2 15-1213).
The target of experiment [13] is T3, pxENB1-His-TEV-FLS-TN. The source holds these as a separate data set.
Experiment [14] addresses pxENBEP17_TPA_Nuc(1-182)_Spike (15-1216, GAAS, PP)_10xHis (SARS-CoV-2).
Experiment [15] deals with T2, pxENB17-RBD-His. The source holds these as a separate data set.
Experiment [16] has as its target pxENBEP18_Spike_Nuc(1-182)_10xHis (SARS-CoV-2).
In experiment [17] the target is T4, pxENB8-FLS-TN-His. This is another data set of the same source.
The target in experiment [18] is T1, pxENB9-FLS-CT-His. The source holds these as a separate data set.
Experiment [19] deals with T5, pxENB2-His-TEV-FLS-CT. The source holds these as a separate data set.
The target in experiment [20] is T6, pxENB5-his-TEV-FLS. The source holds these as a separate data set.
In experiment [21] the target is pxEBNCP15-mIgGHC-FLS-CT-His (SARS-CoV-2, UniProt P0DTC2 16-1213).
Experiment [22] has as its target T7, pxENB12-FLS-His. This is another data set of the same source.

B1: pxEBN9-ACE2-AAA-SBP-His (receptor)
chain: QSTIEEQAKTFLDKFNHEAEDLFYQSSLASWNYNTNITEENVQNMNNAGDKWSAFLKEQSTLAQMYPLQEIQNLTVKLQLQALQQNGSSVLSEDKSKRLNTILNTMSTIYSTGKVCNPDAPAECLLLEPGLNEIMANSLDYNERLWAWESWRSEVGKALRPLYEEYVVLKNEMARANHYEDYGDYWRGDYEVNGVDGYDYSRGQLIEDVEHTFEEIKPLYEHLHAYVRAKLMNAYPSYISPIGCLPAHLLGDMWGRFWTNLYSLTVPFGQKPNIDVTDAMVDQAWDAQRIFKEAEKFFVSVGLPNMTQGFWENSMLTDPGNVQKAVCHPTAWDLGKGDFRILMCTKVTMDDFLTAHHEMGHIQYDMAYAAQPFLLRNGANEGFHEAVGEIMSLSAATPKHLKSIGLLSPDFQEDNETEINFLLKQALTIVGTLPFTYMLEKWRWMVFKGEIPKDQWMKKWWEMKREIVGVVEPVPHDETYCDPASLFHVSNDYSFIRYYTRTLYQFQFQEALCQAAKHEGPLHKCDISNSTEAGQKLFNMLRLGKSEPWTLALENVVGAKNMNVRPLLNYFEPLFTWLKDQNKNSFVGWSTDWSPYADGGGSMDEKTTGWRGGHVVEGLAGELEQLRARLEHHPQGQREPHHHHHHHH
Consider B1, for which the figures for the Kd with pxENB9-FLS-CT-His [1] and with pxENB17-RBD-His [2] were 13400 nM and 32600 nM, respectively. In addition, in the experiment with pxENB17-RBD-His [3], the “Response, shift in Wavelength (nm)” value was determined as 0.0002 nm.

B2: pxEBNCP13_hACE2-AAA-SBP (receptor)
chain: QSTIEEQAKTFLDKFNHEAEDLFYQSSLASWNYNTNITEENVQNMNNAGDKWSAFLKEQSTLAQMYPLQEIQNLTVKLQLQALQQNGSSVLSEDKSKRLNTILNTMSTIYSTGKVCNPDAPAECLLLEPGLNEIMANSLDYNERLWAWESWRSEVGKALRPLYEEYVVLKNEMARANHYEDYGDYWRGDYEVNGVDGYDYSRGQLIEDVEHTFEEIKPLYEHLHAYVRAKLMNAYPSYISPIGCLPAHLLGDMWGRFWTNLYSLTVPFGQKPNIDVTDAMVDQAWDAQRIFKEAEKFFVSVGLPNMTQGFWENSMLTDPGNVQKAVCHPTAWDLGKGDFRILMCTKVTMDDFLTAHHEMGHIQYDMAYAAQPFLLRNGANEGFHEAVGEIMSLSAATPKHLKSIGLLSPDFQEDNETEINFLLKQALTIVGTLPFTYMLEKWRWMVFKGEIPKDQWMKKWWEMKREIVGVVEPVPHDETYCDPASLFHVSNDYSFIRYYTRTLYQFQFQEALCQAAKHEGPLHKCDISNSTEAGQKLFNMLRLGKSEPWTLALENVVGAKNMNVRPLLNYFEPLFTWLKDQNKNSFVGWSTDWSPYADGGSGMDEKTTGWRGGHVVEGLAGELEQLRARLEHHPQGQREP
On to B2, for which the Kd with pxENB9-FLS-CT-His [1] is 10500 nM; with pxENB17-RBD-His [2], 401 nM. For the same molecule, the “Response, shift in Wavelength (nm)” value with pxENB17-RBD-His [3] came out at 0.0102 nm.

B3: pxEBNCP24_hACE2-AAA-p53-SBP (receptor)
chain: QSTIEEQAKTFLDKFNHEAEDLFYQSSLASWNYNTNITEENVQNMNNAGDKWSAFLKEQSTLAQMYPLQEIQNLTVKLQLQALQQNGSSVLSEDKSKRLNTILNTMSTIYSTGKVCNPDAPAECLLLEPGLNEIMANSLDYNERLWAWESWRSEVGKALRPLYEEYVVLKNEMARANHYEDYGDYWRGDYEVNGVDGYDYSRGQLIEDVEHTFEEIKPLYEHLHAYVRAKLMNAYPSYISPIGCLPAHLLGDMWGRFWTNLYSLTVPFGQKPNIDVTDAMVDQAWDAQRIFKEAEKFFVSVGLPNMTQGFWENSMLTDPGNVQKAVCHPTAWDLGKGDFRILMCTKVTMDDFLTAHHEMGHIQYDMAYAAQPFLLRNGANEGFHEAVGEIMSLSAATPKHLKSIGLLSPDFQEDNETEINFLLKQALTIVGTLPFTYMLEKWRWMVFKGEIPKDQWMKKWWEMKREIVGVVEPVPHDETYCDPASLFHVSNDYSFIRYYTRTLYQFQFQEALCQAAKHEGPLHKCDISNSTEAGQKLFNMLRLGKSEPWTLALENVVGAKNMNVRPLLNYFEPLFTWLKDQNKNSFVGWSTDWSPYADGGGSKPLDGEYFTLQIRGRERFEMFRELNEALELKDAQAGKEPGGGSGMDEKTTGWRGGHVVEGLAGELEQLRARLEHHPQGQREP
Consider B3, for which the Kd turned out to be 0.001 nM in the experiment with pxENB9-FLS-CT-His [1] and 0.231 nM with pxENB17-RBD-His [2]. For the same molecule, in the experiment with pxENB17-RBD-His [3], the “Response, shift in Wavelength (nm)” value worked out at 0.028 nm.

B4: pxEBN4-ACE2-AAA-His (receptor)
chain: QSTIEEQAKTFLDKFNHEAEDLFYQSSLASWNYNTNITEENVQNMNNAGDKWSAFLKEQSTLAQMYPLQEIQNLTVKLQLQALQQNGSSVLSEDKSKRLNTILNTMSTIYSTGKVCNPDAPAECLLLEPGLNEIMANSLDYNERLWAWESWRSEVGKALRPLYEEYVVLKNEMARANHYEDYGDYWRGDYEVNGVDGYDYSRGQLIEDVEHTFEEIKPLYEHLHAYVRAKLMNAYPSYISPIGCLPAHLLGDMWGRFWTNLYSLTVPFGQKPNIDVTDAMVDQAWDAQRIFKEAEKFFVSVGLPNMTQGFWENSMLTDPGNVQKAVCHPTAWDLGKGDFRILMCTKVTMDDFLTAHHEMGHIQYDMAYAAQPFLLRNGANEGFHEAVGEIMSLSAATPKHLKSIGLLSPDFQEDNETEINFLLKQALTIVGTLPFTYMLEKWRWMVFKGEIPKDQWMKKWWEMKREIVGVVEPVPHDETYCDPASLFHVSNDYSFIRYYTRTLYQFQFQEALCQAAKHEGPLHKCDISNSTEAGQKLFNMLRLGKSEPWTLALENVVGAKNMNVRPLLNYFEPLFTWLKDQNKNSFVGWSTDWSPYADGGGSHHHHHHHH
For B4, the equilibrium dissociation constant (Kd) in the experiment with pxENBCP17-FLS-CT-His-SBP is 51.5 nM; in [4], 90.8 nM; with pxENBCP20-FLS-CT-His-TST, 51.6 nM; with pxENB17-RBD-His [5], 32.6 nM; with pxENB9-FLS-CT-His [6], 36.6 nM; in the experiment with pxENB1-His-TEV-FLS-TN [7] it was 3.9 nM. For the same molecule, the Kd in the experiment with pxENB8-FLS-TN-His [8] is 6.51 nM; in the experiment with pxENB9-FLS-CT-His [9], below 0.001 nM; with pxENB2-His-TEV-FLS-CT [10], 1.1 nM; with pxENB5-his-TEV-FLS [11], 16.6 nM; in the experiment with pxENB12-FLS-His [12], 3.19 nM; in the experiment with pxENB1-His-TEV-FLS-TN [13] it was 69.2 nM. For the same molecule, the Kd is 1.46 nM with pxEBNCP16-IL2-FLS-CT-His; 26.9 nM in experiment [14]; 39.6 nM in the experiment with pxEBNCP3-S1-His; 0.242 nM with pxENB17-RBD-His [15]; 21.6 nM in experiment [16]; 12.4 nM in the experiment with pxENB8-FLS-TN-His [17]. The Kd with pxENB14-His-TEV-RBD is 0.156 nM; in the experiment with pxENB9-FLS-CT-His [18] it was below 0.001 nM; with pxENB2-His-TEV-FLS-CT [19] it was 0.45 nM; with pxEBNCP1-His-TEV-S1, 22.8 nM; with pxEBNCP14-tPa-FLS-CT-His it was 0.00613 nM; with pxEBNCP2-tPa-His-TEV-S1, 34.2 nM. Moreover, the equilibrium dissociation constant (Kd) with pxENB5-his-TEV-FLS [20] is 19.5 nM; in the experiment with pxEBNCP4-tPa-S1-His, 45 nM; with pxAM-FLS-A-TB-His, 0.00709 nM; in experiment [21], below 0.001 nM; with pxENB12-FLS-His [22], 13.1 nM; in the experiment with commercial RBD protein it was 0.2 nM.

(Values after patent US20240400618A1 (GRIFOLS DIAGNOSTIC SOLUTIONS, published 2024).)
